Measured values published in patent publication US20260275344.

Tested on: PiggyBac transposase
Experiment: cell_activity

For ITR-EF1a-GFP-ITR cssDNA, the activity (K562 day 21, donor alone ~2.37%) was 39.3 % GFP+ cells and the activity (primary human T cells day 14, donor alone ~0.16%) was 7.54 % GFP+ cells.
